The labels stand for the following.
T1: IL1RL1 (UniProt Q01638 19-328, limits assumed)
T1 construct: SPR analyte
T1 sequence (looked up): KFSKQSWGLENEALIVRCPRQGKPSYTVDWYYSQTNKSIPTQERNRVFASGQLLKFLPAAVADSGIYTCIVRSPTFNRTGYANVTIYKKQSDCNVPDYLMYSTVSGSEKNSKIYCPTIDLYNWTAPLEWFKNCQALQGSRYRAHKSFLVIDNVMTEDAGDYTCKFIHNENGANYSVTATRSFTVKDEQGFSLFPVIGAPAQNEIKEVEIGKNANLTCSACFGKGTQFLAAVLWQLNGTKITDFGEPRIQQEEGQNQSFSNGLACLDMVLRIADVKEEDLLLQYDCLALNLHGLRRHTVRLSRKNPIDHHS

T2: IL1RL1 over-expressed on Expi293 cells (UniProt Q01638 19-556, limits assumed)
T2 construct: whole, on cells; Target of the flow cytometry MFI ratio (over-expressing cells over parent cells); also called cytokine over-expressing Expi293 cells
T2 sequence (looked up): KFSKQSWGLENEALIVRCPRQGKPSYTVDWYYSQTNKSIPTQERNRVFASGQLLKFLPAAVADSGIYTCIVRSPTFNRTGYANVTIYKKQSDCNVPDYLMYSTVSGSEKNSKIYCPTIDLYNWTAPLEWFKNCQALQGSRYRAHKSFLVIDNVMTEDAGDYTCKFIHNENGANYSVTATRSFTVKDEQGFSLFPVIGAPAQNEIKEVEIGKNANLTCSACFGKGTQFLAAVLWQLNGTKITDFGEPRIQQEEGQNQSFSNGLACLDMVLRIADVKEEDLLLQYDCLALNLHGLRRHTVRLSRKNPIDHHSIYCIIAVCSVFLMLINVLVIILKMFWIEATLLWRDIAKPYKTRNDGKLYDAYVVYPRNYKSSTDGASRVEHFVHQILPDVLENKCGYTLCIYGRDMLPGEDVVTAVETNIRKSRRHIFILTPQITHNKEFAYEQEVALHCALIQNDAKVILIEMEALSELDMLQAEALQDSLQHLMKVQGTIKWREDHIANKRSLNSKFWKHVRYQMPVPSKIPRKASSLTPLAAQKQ

B1: IL1RL1-27 (Fc fusion, not shown: a dimerising Fc or GST)
VHH: EVQLVESGGGLVQPGGSLRLSCAASGGTISTYAIGWFRQAPGKEREGVAAISPGNNTHYADSVKGRFTISADNSKNTAYLQMNSLKPEDTAVYYCAARPVRVDDISLPVGFDWGQGTLVTVSS
notes: VHH-Fc on IgG2 Fc
B2: IL1RL1-19 (Fc fusion, not shown: a dimerising Fc or GST)
VHH: EVQLVESGGGLVQPGGSLRLSCAASGRTDSTASMGWFRQAPGKEREEVAAISWSGGRTYYADSVKGRFTISADNSKNTAYLQMNSLKPEDTAVYYCARLAFQGNTVFDLWGQGTLVTVSS
notes: VHH-Fc on IgG2 Fc
B3: IL1RL1-92 (Fc fusion, not shown: a dimerising Fc or GST)
VHH: B2 VHH with D29H
notes: VHH-Fc on IgG2 Fc
B4: IL1RL1-21 (Fc fusion, not shown: a dimerising Fc or GST)
VHH: EVQLVESGGGLVQPGGSLRLSCAASGTITSAVFMGWFRQAPGKEREFVAGIIGSGGATYYADSVKGRFTISADNSKNTAYLQMNSLKPEDTAVYYCAASRYARERDVHAYDWGQGTLVTVSS
notes: VHH-Fc on IgG2 Fc
B5: IL1RL1-44 (Fc fusion, not shown: a dimerising Fc or GST)
VHH: EVQLVESGGGLVQPGGSLRLSCAASGDYYAMGWFRQAPGKEREWVSSIGIAGTPTFYADSVKGRFTISADNSKNTAYLQMNSLKPEDTAVYYCAANVGVTGSYEWGQGTLVTVSS
notes: VHH-Fc on IgG2 Fc
B6: IL1RL1-15 (Fc fusion, not shown: a dimerising Fc or GST)
VHH: EVQLVESGGGLVQPGGSLRLSCAASGRTYSISAMGWFRQAPGKEREWVSSIGIAGTPTFYADSVKGRFTISADNSKNTAYLQMNSLKPEDTAVYYCAAGVTGGAAYGWGQGTLVTVSS
notes: VHH-Fc on IgG2 Fc
B7: IL1RL1-24 (Fc fusion, not shown: a dimerising Fc or GST)
VHH: EVQLVESGGGLVQPGGSLRLSCAASGGTAYAMGWFRQAPGKEREWVASISTSGSTITPYADSVKGRFTISADNSKNTAYLQMNSLKPEDTAVYYCAAASRSGSGYDWGQGTLVTVSS
notes: VHH-Fc on IgG2 Fc
B8: IL1RL1-59 (Fc fusion, not shown: a dimerising Fc or GST)
VHH: B7 VHH with A98N, S99V, R100G, S101V, G102T, S103G, G104S, D106E
notes: VHH-Fc on IgG2 Fc
B9: IL1RL1-40 (Fc fusion, not shown: a dimerising Fc or GST)
VHH: EVQLVESGGGLVQPGGSLRLSCAASGRTFSDYVMGWFRQAPGKEREIVAAIAWTGTTDYADSVKGRFTISADNSKNTAYLQMNSLKPEDTAVYYCAARIRGKVTVDNFDYAWGQGTLVTVSS
notes: VHH-Fc on IgG2 Fc
B10: IL1RL1-23 (Fc fusion, not shown: a dimerising Fc or GST)
VHH: EVQLVESGGGLVQPGGSLRLSCAASGRTFSTASMGWFRQAPGKEREWVASISTSGSTITPYADSVKGRFTISADNSKNTAYLQMNSLKPEDTAVYYCAVVDLLRGKLWGQGTLVTVSS
notes: VHH-Fc on IgG2 Fc
B11: IL1RL1-22 (Fc fusion, not shown: a dimerising Fc or GST)
VHH: EVQLVESGGGLVQPGGSLRLSCAASGRTSNIYAMGWFRQAPGKEREWVASISTSGSTITPYADSVKGRFTISADNSKNTAYLQMNSLKPEDTAVYYCAIAHGSSTYNWGQGTLVTVSS
B12: IL1RL1-39 (Fc fusion, not shown: a dimerising Fc or GST)
VHH: EVQLVESGGGLVQPGGSLRLSCAASGGTFSVYAMGWFRQAPGKEREAVASISTSGGSTYYADSVKGRFTISADNSKNTAYLQMNSLKPEDTAVYYCAIGGTLYDRRRFEWGQGTLVTVSS
notes: VHH-Fc on IgG2 Fc
B13: IL1RL1-17 (Fc fusion, not shown: a dimerising Fc or GST)
VHH: EVQLVESGGGLVQPGGSLRLSCAASGRDLDYYAMGWFRQAPGKEREWVSSIGIAGTPTFYADSVKGRFTISADNSKNTAYLQMNSLKPEDTAVYYCAVVDLLRGKLWGQGTLVTVSS
notes: VHH-Fc on IgG2 Fc
B14: IL1RL1-26 (Fc fusion, not shown: a dimerising Fc or GST)
VHH: EVQLVESGGGLVQPGGSLRLSCAASGLTTVYTMGWFRQAPGKERESVASISWTGGTTYYADSVKGRFTISADNSKNTAYLQMNSLKPEDTAVYYCAAIAHEEGVYRWDWGQGTLVTVSS
notes: VHH-Fc on IgG2 Fc
B15: IL1RL1-20 (Fc fusion, not shown: a dimerising Fc or GST)
VHH: EVQLVESGGGLVQPGGSLRLSCAASGFSLDDRVMGWFRQAPGKEREFVAGITLGGSTSYADSVKGRFTISADNSKNTAYLQMNSLKPEDTAVYYCAAAPVPWGTRPSLLTYDWGQGTLVTVSS
notes: VHH-Fc on IgG2 Fc
B16: IL1RL1-25 (Fc fusion, not shown: a dimerising Fc or GST)
VHH: EVQLVESGGGLVQPGGSLRLSCAASGGTFNGRAMGWFRQAPGKEREGVATINSGGGTNYADSVKGRFTISADNSKNTAYLQMNSLKPEDTAVYYCALRRLSPPPLLDWGQGTLVTVSS
notes: VHH-Fc on IgG2 Fc
B17: IL1RL1-16 (Fc fusion, not shown: a dimerising Fc or GST)
VHH: EVQLVESGGGLVQPGGSLRLSCAASGFSLDYYGMGWFRQAPGKEREGVATINWSGATSYADSVKGRFTISADNSKNTAYLQMNSLKPEDTAVYYCAIPGVWGQGTLVTVSS
notes: VHH-Fc on IgG2 Fc
B18: IL1RL1-45 (Fc fusion, not shown: a dimerising Fc or GST)
VHH: EVQLVESGGGLVQPGGSLRLSCAASGRTLSSYTMGWFRQAPGKEREFVAGIWSGGYTHYADSVKGRFTISADNSKNTAYLQMNSLKPEDTAVYYCAAVSSNSETFDWGQGTLVTVSS
notes: VHH-Fc on IgG2 Fc

Residue numbers refer to the chain shown, from its start. Where only a bound is given, the exact number is not on record here.

One experiment deals with T1, IL1RL1. In words: SPR (Carterra LSA), antibody amine-coupled, 1:1 model.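 Note: HC30M sensor chip at 25 °C in HBS-TE, analyte at rising concentrations in buffer containing 0.5 mg/mL BSA, 5 min association then 15 min dissociation.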
Experimental: SPR experiments were performed on a Carterra LSA SPR biosensor equipped with a HC30M chip at 25° C. in HBS-TE. Antibodies were diluted to 10 μg/mL and amine-coupled to the sensor chip by EDC/NHS activation, followed by ethanolamine HCl quenching. Increasing concentrations of analyte were flowed over the sensor chip in HBS-TE with 0.5 mg/mL BSA with 5-minute association and 15-minute dissociation. Following each injection cycle the surface was regenerated with 2× 30-second injections of IgG elution buffer (Thermo). Data were analyzed in Carterra's Kinetics Tool software with 1:1 binding model.
Regarding B1, binding was put at a Kd of 3.7 nM, the koff amounted to 0.000372 s⁻¹ and the kon was 101000 M⁻¹ s⁻¹.
In the case of B2, binding was put at a Kd of 0.104 nM, the koff is 1.29e-05 s⁻¹ and the kon came out at 123000 M⁻¹ s⁻¹.
For B3 the same measures were 4.4 nM, 0.000619 s⁻¹ and 141000 M⁻¹ s⁻¹.
Turning to B4, binding was characterised by a dissociation constant (Kd) of 0.409 nM, the koff amounted to 5.04e-05 s⁻¹ and the kon is 123000 M⁻¹ s⁻¹.
As to B5, the dissociation constant (Kd) is no more than 0.016 nM, the koff is no more than 1e-05 s⁻¹ and the kon was 626000 M⁻¹ s⁻¹.
For B6, the affinity, expressed as Kd, was 3.23 nM; the koff was determined as 0.00041 s⁻¹; the kon is 127000 M⁻¹ s⁻¹.
For B7 the same measures were 1.62 nM, 0.000232 s⁻¹ and 143000 M⁻¹ s⁻¹.
B8 showed a dissociation constant (Kd) of no more than 0.0748 nM, a koff of no more than 1e-05 s⁻¹ and a kon of 134000 M⁻¹ s⁻¹.
For the molecule B9, the Kd was 7.31 nM, the koff turned out to be 0.00116 s⁻¹ and the kon was 159000 M⁻¹ s⁻¹.
The molecule B10 gave a Kd of no more than 0.188 nM, a koff of no more than 1e-05 s⁻¹ and a kon of 53100 M⁻¹ s⁻¹.
For B11 the same measures were 1.36 nM, 0.000243 s⁻¹ and 179000 M⁻¹ s⁻¹.
Molecule B12 displayed a Kd of 0.688 nM, a koff of 5.5e-05 s⁻¹ and a kon of 80000 M⁻¹ s⁻¹.
B13: the Kd worked out at 2.76 nM, the koff turned out to be 0.000588 s⁻¹ and the kon was 213000 M⁻¹ s⁻¹.
B14 had a Kd of 3.12 nM, a koff of 0.000618 s⁻¹ and a kon of 198000 M⁻¹ s⁻¹.
The matching figures for B15: 0.302 nM, 2.92e-05 s⁻¹ and 96600 M⁻¹ s⁻¹.
Molecule B16 came in with a Kd of 1.47 nM, an off-rate constant (koff) of 0.000392 s⁻¹ and a kon of 267000 M⁻¹ s⁻¹.
For B17, binding was characterised by a dissociation constant (Kd) of 5.71 nM, the koff was 0.0011 s⁻¹ and the kon amounted to 193000 M⁻¹ s⁻¹.
Regarding B18, the Kd was determined as 1.19 nM, the koff worked out at 0.000326 s⁻¹ and the kon amounted to 275000 M⁻¹ s⁻¹.

Another experiment has as its target T2, IL1RL1 over-expressed on Expi293 cells. Briefly: flow cytometry, 100 nM antibody, over-expressing Expi293 / parent cells.
Experimental: All incubations and washes were in buffer containing PBS+1% BSA. MFI Ratio is defined by the mean fluorescence intensity (MFI) of the cytokine over-expressing Expi293 cell over the Expi293 parent cell. […] EC50 was calculated in GraphPad Prism.
Take B1: the “100 nM FACS (MFI Ratio)” value is 450 MFI ratio.
Same read-out and setting: in the case of B2 it was 486 MFI ratio; in that of B3, 484 MFI ratio.
Turning to B4, the “100 nM FACS (MFI Ratio)” value was 521 MFI ratio.
Regarding B5, the “100 nM FACS (MFI Ratio)” value was found to be 448 MFI ratio.
Same read-out and setting: the result for B6 reads 331 MFI ratio; that for B7, 438 MFI ratio; that for B8, 374 MFI ratio.
In the case of B9, the “100 nM FACS (MFI Ratio)” value was 415 MFI ratio.
For B10, the “100 nM FACS (MFI Ratio)” value was determined as 526 MFI ratio.
In the case of B11, the “100 nM FACS (MFI Ratio)” value was 294 MFI ratio.
On to B12, for which the “100 nM FACS (MFI Ratio)” value amounted to 267 MFI ratio.
As for B13, the “100 nM FACS (MFI Ratio)” value was found to be 415 MFI ratio.
For B14, the “100 nM FACS (MFI Ratio)” value was 310 MFI ratio.
Same read-out and setting: the result for B15 reads 396 MFI ratio; that for B16, 69.5 MFI ratio; that for B17, 478 MFI ratio.
Same read-out and setting: in the case of B18 it was 704 MFI ratio.

The values are drawn from US20230265179A1 (TWIST BIOSCIENCE, published 2023).
